This is an account of results in publication doi:10.1101/800508 (bioRxiv, 2019).

Sequences and labels used below:
B1: Rsc8, subunit of RSC (natural protein)
chain: MSDTEKDKDVPMVDSHEATEEPPTTSTNTPSFPHLAQEQAKEESATLGAEVAHKKINYEQEAQKLEEKALRFLAKQTHPVIIPSFASWFDISKIHEIEKRSNPDFFNDSSRFKTPKAYKDTRNFIINTYRLSPYEYLTITAVRRNVAMDVASIVKIHAFLEKWGLINYQIDPRTKPSLIGPSFTGHFQVVLDTPQGLKPFLPENVIKQEVEGGDGAEPQVKKEFPVNLTIKKNVYDSAQDFNALQDESRNSRQIHKVYICHTCGNESINVRYHNLRARDTNLCSRCFQEGHFGANFQSSDFIRLENNGNSVKKNWSDQEMLLLLEGIEMYEDQWEKIADHVGGHKRVEDCIEKFLSLPIEDNYIREVVGSTLNGKGGDSRDGSVSGSKLMECVNDAVQTLLQGDDKLGKVSDKSREISEKYIEESQAIIQELVKLTMEKLESKFTKLCDLETQLEMEKLKYVKESEKMLNDRLSLSKQILDLNKSLEELNVSKKLVLISEQVDSGIQLVEKDQEGDDEDGNTATGHGVKRVGKEGEEVGEGDSIAKLQPQVYKPWSL
B4: Sth1, ATPase subunit of RSC (enzyme)
chain: MLQEQSELMSTVMNNTPTTVAALAAVAAASETNGKLGSEEQPEITIPKPRSSAQLEQLLYRYRAIQNHPKENKLEIKAIEDTFRNISRDQDIYETKLDTLRKSIDKGFQYDEDLLNKHLVALQLLEKDTDVPDYFLDLPDTKNDNTTAIEVDYSEKKPIKISADFNAKAKSLGLESKFSNATKTALGDPDTEIRISARISNRINELERLPANLGTYSLDDCLEFITKDDLSSRMDTFKIKALVELKSLKLLTKQKSIRQKLINNVASQAHHNIPYLRDSPFTAAAQRSVQIRSKVIVPQTVRLAEELERQQLLEKRKKERNLHLQKINSIIDFIKERQSEQWSRQERCFQFGRLGASLHNQMEKDEQKRIERTAKQRLAALKSNDEEAYLKLLDQTKDTRITQLLRQTNSFLDSLSEAVRAQQNEAKILHGEEVQPITDEEREKTDYYEVAHRIKEKIDKQPSILVGGTLKEYQLRGLEWMVSLYNNHLNGILADEMGLGKTIQSISLITYLYEVKKDIGPFLVIVPLSTITNWTLEFEKWAPSLNTIIYKGTPNQRHSLQHQIRVGNFDVLLTTYEYIIKDKSLLSKHDWAHMIIDEGHRMKNAQSKLSFTISHYYRTRNRLILTGTPLQNNLPELWALLNFVLPKIFNSAKTFEDWFNTPFANTGTQEKLELTEEETLLIIRRLHKVLRPFLLRRLKKEVEKDLPDKVEKVIKCKLSGLQQQLYQQMLKHNALFVGAGTEGATKGGIKGLNNKIMQLRKICNHPFVFDEVEGVVNPSRGNSDLLFRVAGKFELLDRVLPKFKASGHRVLMFFQMTQVMDIMEDFLRMKDLKYMRLDGSTKTEERTEMLNAFNAPDSDYFCFLLSTRAGGLGLNLQTADTVIIFDTDWNPHQDLQAQDRAHRIGQKNEVRILRLITTDSVEEVILERAMQKLDIDGKVIQAGKFDNKSTAEEQEAFLRRLIESETNRDDDDKAELDDDELNDTLARSADEKILFDKIDKERMNQERADAKAQGLRVPPPRLIQLDELPKVFREDIEEHFKKEDSEPLGRIRQKKRVYYDDGLTEEQFLEAVEDDNMSLEDAIKKRREARERRRLRQNGTKENEIETLENTPEASETSLIENNSFTAAVDEETNADKETTASRSKRRSSRKKRTISIVTAEDKENTQEESTSQENGGAKVEEEVKSSSVEIINGSESKKKKPKLTVKIKLNKTTVLENNDGKRAEEKPESKSPAKKTAAKKTKTKSKSLGIFPTVEKLVEEMREQLDEVDSHPRTSIFEKLPSKRDYPDYFKVIEKPMAIDIILKNCKNGTYKTLEEVRQALQTMFENARFYNEEGSWVYVDADKLNEFTDEWFKEHSS

Experiment in all cases: cryo-EM structure
The data set “cryo-EM structure” concerns the molecule itself.
In the data set “Rsc8, subunit of RSC” the target is B1.
Data set [1] deals with histone H4 (Xenopus laevis) (Xenopus laevis, UniProt P62799 2-103).
Data set [2] deals with B4.

For the molecule B1, the “stoichiometry N” value in the data set “cryo-EM structure” came out at 2.

B2: Sfh1, subunit of RSC (natural protein)
chain: MSHQNQLIPQAYISNFHNRLTNEDDGIPIFTMAQQTRQHKRAKVVNYAEYDNDLFDEFNMNGSNFNNADTHYKDNAVSHENTPALTNGVTMDGSEYNVLENMNGADSIISNNKYDAGSNMVVESLSGLNSNNNASNGPSNKAQAQDIGNAVLPDLQDQHHNPFNILRYPKIRDTFINGKVVSPYRLNTDQETKANANSGEAIMIPITLDIEHMGHTIKDQFLWNYNDDSISPEEFASIYCKDLDMTSATLQTQIANIIKEQLKDLENIAATEIMSDLHVIINLTCNLQDRFFEDNFQWNLNDKSLTPERFATSIVQDLGLTREFIPLISQSLHETILKIKKDWVDGHLIQDHVPNDAAFGYLSGIRLDIDELGSNWCPRVEILTKEEIQKREIEKERNLRRLKRETDRLSRRGRRRLDDLETTMRM
For B2, the binding result with Rsc8, subunit of RSC is given as “binds”.

B3: Rsc6, subunit of RSC (natural protein)
chain: MVTQTNPVPVTYPTDAYIPTYLPDDKVSNLADLKKLIEMDSRLDLYLTRRRLDTSINLPTNTKTKDHPPNKEMLRIYVYNTTESSPRSDSGTPADSGKTTWTLRIEGKLLHESANGKHPFSEFLEGVAVDFKRLKPLGMGKKRKRDSSLSLPLNLQQPEYNDQDSTMGDNDNGEDEDSAEAESREEIVDALEWNYDENNVVEFDGIDIKRQGKDNLRCSITIQLRGVDGGKVQYSPNLATLIGMQTGSVNDAVYSIYKYILINNLFVTEQTEAQDGSNDAEDSSNENNNKNGAGDDDGVEGSTPKDKPELGEVKLDSLLQKVLDTNAAHLPLMNVVQTVNKLVSPLPPIILDYTIDLSKDTTYGATTLDVDVSHILHQPQPQPNLQKEEETDAEDTAKLREITKLALQLNSSAQKYQFFHELSLHPRETLTHYLWSSKQNELVLQGDQYFNEDAARTSDIYSNNNNDRSLMGNISLLYSQGRL
On to B3, for which the binding result with Rsc8, subunit of RSC was “binds”. Regarding B4, in data set [1], the binding result is listed as “binds”.

B5: Rtt102, subunit of RSC (natural protein)
chain: MDPQTLITKANKVSYYGNPTSKESWRYDWYQPSKVSSNVQQPQQQLGDMENNLEKYPFRYKTWLRNQEDEKNLQRESCEDILDLKEFDRRILKKSLMTSHTKGDTSKATGAPSANQGDEALSVDDIRGAVGNSEAIPGLSAGVNNDNTKESKDVKMN
Take B5: the binding result in data set [2] is “binds”.

B6: Arp7, actin-related protein, subunit of RSC (natural protein)
chain: MTLNRKCVVIHNGSHRTVAGFSNVELPQCIIPSSYIKRTDEGGEAEFIFGTYNMIDAAAEKRNGDEVYTLVDSQGLPYNWDALEMQWRYLYDTQLKVSPEELPLVITMPATNGKPDMAILERYYELAFDKLNVPVFQIVIEPLAIALSMGKSSAFVIDIGASGCNVTPIIDGIVVKNAVVRSKFGGDFLDFQVHERLAPLIKEENDMENMADEQKRSTDVWYEASTWIQQFKSTMLQVSEKDLFELERYYKEQADIYAKQQEQLKQMDQQLQYTALTGSPNNPLVQKKNFLFKPLNKTLTLDLKECYQFAEYLFKPQLISDKFSPEDGLGPLMAKSVKKAGASINSMKANTSTNPNGLGTSHINTNVGDNNSTASSSNISPEQVYSLLLTNVIITGSTSLIEGMEQRIIKELSIRFPQYKLTTFANQVMMDRKIQGWLGALTMANLPSWSLGKWYSKEDYETLKRDRKQSQATNATN
Take B6: the binding result in data set [2] is “binds”.

B7: Arp9, actin-related protein, subunit of RSC (natural protein)
chain: MAPFRQDSILIIYPRSQTTLVQFGLNEETFTVPELEIPTQIYRTTRQDGSYTYHSTNKDNKAELIKPIQNGEIIDISAFTQFLRLIFVSILSDRANKNQDAFEAELSNIPLLLITHHSWSQSDLEIITQYVFESLEINNLIQLPASLAATYSMISLQNCCIIDVGTHHTDIIPIVDYAQLDHLVSSIPMGGQSINDSLKKLLPQWDDDQIESLKKSPIFEVLSDDAKKLSSFDFGNENEDEDEGTLNVAEIITSGRDTREVLEERERGQKVKNVKNSDLEFNTFWDEKGNEIKVGKQRFQGCNNLIKNISNRVGLTLDNIDDINKAKAVWENIIIVGGTTSISGFKEALLGQLLKDHLIIEPEEEKSKREEEAKSVLPAATKKKSKFMTNSTAFVPTIEYVQCPTVIKLAKYPDYFPEWKKSGYSEIIFLGAQIVSKQIFTHPKDTFYITREKYNMKGPAALWDVQF
Turning to B7, the binding result in data set [2] is “binds”.
